Experiments:
[1] = biological target: EGF receptor (EGFR) (human (endogenous in MDA-MB-231, MCF-7, MDA-MB-468)) (UniProt P00533); assay: flow cytometry on cells; MDA-MB-231 cells in suspension; QD-EGF 0.06-120 nM (EGF:QD = 0.33) or dye-EGF 0.02-40 nM; 4 °C, 4 h with rocking; PBS with 0.5% BSA; nonspecific binding measured with 2 µM unlabeled EGF and subtracted; one-site fit
[2] = biological target: EGF receptor (EGFR) (human (endogenous in MDA-MB-231, MCF-7, MDA-MB-468)) (UniProt P00533); assay: single-molecule counting of quantum dots by calibrated 3D deconvolution microscopy (QDC-3DM); unpatterned MDA-MB-231 cells; QD-EGF at 0.1, 1, 10 or 100 nM for 5 min on ice in serum-free DMEM with 0.8% BSA; washed and fixed
[3] = biological target: EGF receptor (EGFR) (human (endogenous in MDA-MB-231, MCF-7, MDA-MB-468)) (UniProt P00533); assay: single-molecule counting of quantum dots by calibrated 3D deconvolution microscopy (QDC-3DM); MDA-MB-231 cells on fibronectin micropatterns; 1 nM QD744-EGF pulse for 5 min, washed, kept in serum-free medium; counted 10 and 30 min after the start of the pulse; also with gefitinib 0-5.1 µM
[4] = biological target: EGF receptor (EGFR) (human (endogenous in MDA-MB-231, MCF-7, MDA-MB-468)) (UniProt P00533); assay: single-molecule counting of quantum dots by calibrated 3D deconvolution microscopy (QDC-3DM); unpatterned MDA-MB-468 cells (high EGFR expression); 1 nM QD-EGF for 5 min on ice; washed and fixed

| Kd [1] [nM] | QD-EGF counts per cell (0.1, 1 and 10 nM QD-EGF) [2] [per cell] | mean EGF bound per cell (1 nM QD-EGF) [2] [EGF per cell] | EGF per cell (1 nM QD-EGF) [3] [EGF per cell] | QD-EGF per cell 30 min after the start of a 5 min pulse [3] [per cell] | mean EGF bound per cell (1 nM QD-EGF) [4] [EGF per cell] | Substance |
| --- | --- | --- | --- | --- | --- | --- |
| 3.2 | – | – | – | – | – | EGF conjugated to a single tetramethylrhodamine dye (ligand) |
| – | 0 to 4000 | 80 | 1270 | 800 | 922 | QD-EGF conjugate: epidermal growth factor with a single N-terminal biotin bound to a streptavidin-conjugated quantum dot (ligand) |
